Assay results from US20100184709.

Molecular target: T1, Ac-LRSR-amc
T1 chain: LRSR

B1: recombinant purified GST-Malt1 protein, oligomerized by binding to glutathione sepharose (protein)
chain: MSLLGDPLQALPPSAAPTGPLLAPPAGATLNRLREPLLRRLSELLDQAPEGRGWRRLAELAGSRGRLRLSCLDLEQCSLKVLEPEGSPSLCLLKLMGEKGCTVTELSDFLQAMEHTEVLQLLSPPGIKITVNPESKAVLAGQFVKLCCRATGHPFVQYQWFKMNKEIPNGNTSELIFNAVHVKDAGFYVCRVNNNFTFEFSQWSQLDVCDIPESFQRSVDGVSESKLQICVEPTSQKLMPGSTLVLQCVAVGSPIPHYQWFKNELPLTHETKKLYMVPYVDLEHQGTYWCHVYNDRDSQDSKKVEIIIGRTDEAVECTEDELNNLGHPDNKEQTTDQPLAKDKVALLIGNMNYREHPKLKAPLVDVYELTNLLRQLDFKVVSLLDLTEYEMRNAVDEFLLLLDKGVYGLLYYAGHGYENFGNSFMVPVDAPNPYRSENCLCVQNILKLMQEKETGLNVFLLDMCRKRNDYDDTIPILDALKVTANIVFGYATCQGAEAFEIQHSGLANGIFMKFLKDRLLEDKKITVLLDEVAEDMGKCHLTKGKQALEIRSSLSEKRALTDPIQGTEYSAESLVRNLQWAKAHELPESMCLKFDCGVQIQLGFAAEFSNVMIIYTSIVYKPPEIIMCDAYVTDFPLDLDIDPKDANKGTPEETGSYLVSKDLPKHCLYTRLSSLQKLKEHLVFTVCLSYQYSGLEDTVEDKQEVNVGKPLIAKLDMHRGLGRKTCFQTCLMSNGPYQSSAATSGGAGHYHSLQDPFHGVYHSHPGNPSNVTPADSCHCSRTPDAFISSFAHHASCHFSRSNVPVETTDEIPFSFSDRLRISEK
**Q.** With B1 as the protein, how does the “LRSR-amc cleavage activity of recombinant enzyme (fluorescence)” value read?
**A.** The value was “recombinant purified GST-Malt1 protein, oligomerized by binding to glutathione sepharose, was tested for LRSR-amc clavage activity”.
